From publication PMC9352680, “A comprehensive thermodynamic model for RNA binding by the Saccharomyces cerevisiae Pumilio protein PUF4”

T1: PUF4 RNA-binding domain (Saccharomyces cerevisiae, UniProt P25339 537-888)
T1 sequence: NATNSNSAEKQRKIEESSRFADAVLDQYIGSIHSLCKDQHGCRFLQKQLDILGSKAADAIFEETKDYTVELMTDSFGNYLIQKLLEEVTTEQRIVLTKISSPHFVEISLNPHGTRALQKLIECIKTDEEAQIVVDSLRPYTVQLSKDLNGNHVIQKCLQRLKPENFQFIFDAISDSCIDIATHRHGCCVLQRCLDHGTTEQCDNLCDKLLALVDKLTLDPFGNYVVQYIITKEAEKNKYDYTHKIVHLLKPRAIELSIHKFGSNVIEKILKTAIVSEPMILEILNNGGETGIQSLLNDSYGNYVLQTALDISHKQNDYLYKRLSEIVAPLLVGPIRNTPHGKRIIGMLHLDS

B1: Ic_S2_P4E.1_K4.1_C4.1_H4.1_A4.1_[T5C]_[A6T]_[T7C]_F4.1_[T8C]_[A9C]_T4.1 (ssRNA)
RNA: UUUGAUUAAUAUGAUAUCGUUCUUUCUUGUACUCCCUUCUUUCUCGAUAUCAUAUUAAUCUUU
B2: Ic_S2_P4E.1_K4.1_C4.1_H4.1_A4.1_[T5C]_[A6C]_F4.1_[T8A]_[A9T]_T4.1 (ssRNA)
RNA: UUUGAUUAAUAUGAUAUCGUUCUUUCUUGUACCUAUUUCUUUCUCGAUAUCAUAUUAAUCUUU
B3: Ic_S2_P4E.1_K4.1_C4.1_H4.1_A4.1_[T5C]_[A6T]_F4.1_[T8A]_T4.1 (ssRNA)
RNA: UUUGAUUAAUAUGAUAUCGUUCUUUCUUGUACUUAAUUCUUUCUCGAUAUCAUAUUAAUCUUU
B4: Ic_S2_P4E.1_K4.1_C4.1_H4.1_A4.1_[T5C]_[A6T]_[T7A]_F4.1_[T8G]_[A9T]_T4.1 (ssRNA)
RNA: UUUGAUUAAUAUGAUAUCGUUCUUUCUUGUACUAGUUUCUUUCUCGAUAUCAUAUUAAUCUUU
B5: Ic_S2_P4E.1_K4.1_C4.1_H4.1_A4.1_[T5C]_[A6T]_F4.1_[T8A]_[A9T]_T4.1 (ssRNA)
RNA: UUUGAUUAAUAUGAUAUCGUUCUUUCUUGUACUUAUUUCUUUCUCGAUAUCAUAUUAAUCUUU
B6: Ic_S2_P4E.1_K4.1_C4.1_H4.1_A4.1_[T5C]_[T7C]_F4.1_[T8A]_T4.1 (ssRNA)
RNA: UUUGAUUAAUAUGAUAUCGUUCUUUCUUGUACACAAUUCUUUCUCGAUAUCAUAUUAAUCUUU
B7: Ic_S2_P4E.1_K4.1_C4.1_H4.1_A4.1_[T5C]_[A6T]_[T7G]_F4.1_[A9T]_T4.1 (ssRNA)
RNA: UUUGAUUAAUAUGAUAUCGUUCUUUCUUGUACUGUUUUCUUUCUCGAUAUCAUAUUAAUCUUU
B8: Ic_S2_P4E.1_K4.1_C4.1_H4.1_A4.1_[T5C]_[A6T]_F4.1_[T8C]_[A9T]_T4.1 (ssRNA)
RNA: UUUGAUUAAUAUGAUAUCGUUCUUUCUUGUACUUCUUUCUUUCUCGAUAUCAUAUUAAUCUUU
B9: Ic_S2_P4E.1_K4.1_C4.1_H4.1_A4.1_[T5C]_[T7G]_F4.1_[A9T]_T4.1 (ssRNA)
RNA: UUUGAUUAAUAUGAUAUCGUUCUUUCUUGUACAGUUUUCUUUCUCGAUAUCAUAUUAAUCUUU
B10: Ic_S2_P4E.1_K4.1_C4.1_H4.1_A4.1_[T5C]_[A6T]_F4.1_[T8A]_[A9C]_T4.1 (ssRNA)
RNA: UUUGAUUAAUAUGAUAUCGUUCUUUCUUGUACUUACUUCUUUCUCGAUAUCAUAUUAAUCUUU
B11: Ic_S2_P4E.1_K4.1_C4.1_H4.1_A4.1_[T5C]_[A6T]_F4.1_[T8G]_[A9T]_T4.1 (ssRNA)
RNA: UUUGAUUAAUAUGAUAUCGUUCUUUCUUGUACUUGUUUCUUUCUCGAUAUCAUAUUAAUCUUU
B12: Ic_S2_P4E.1_K4.1_C4.1_H4.1_A4.1_[T5C]_[A6T]_[T7G]_F4.1_[T8C]_T4.1 (ssRNA)
RNA: UUUGAUUAAUAUGAUAUCGUUCUUUCUUGUACUGCAUUCUUUCUCGAUAUCAUAUUAAUCUUU
B13: Ic_S2_P4E.1_K4.1_C4.1_H4.1_A4.1_[T5C]_[A6T]_[T7G]_F4.1_[T8C]_[A9C]_T4.1 (ssRNA)
RNA: UUUGAUUAAUAUGAUAUCGUUCUUUCUUGUACUGCCUUCUUUCUCGAUAUCAUAUUAAUCUUU
B14: Ic_S2_P4E.1_K4.1_C4.1_H4.1_A4.1_[T5C]_[T7C]_F4.1_[A9T]_T4.1 (ssRNA)
RNA: UUUGAUUAAUAUGAUAUCGUUCUUUCUUGUACACUUUUCUUUCUCGAUAUCAUAUUAAUCUUU
B15: Ic_S2_P4E.1_K4.1_C4.1_H4.1_A4.1_[T5C]_[A6T]_F4.1_[T8G]_[A9G]_T4.1 (ssRNA)
RNA: UUUGAUUAAUAUGAUAUCGUUCUUUCUUGUACUUGGUUCUUUCUCGAUAUCAUAUUAAUCUUU
B16: Ic_S2_P4E.1_K4.1_C4.1_H4.1_A4.1_[T5C]_[A6T]_[T7C]_F4.1_T4.1 (ssRNA)
RNA: UUUGAUUAAUAUGAUAUCGUUCUUUCUUGUACUCUAUUCUUUCUCGAUAUCAUAUUAAUCUUU
B17: Ic_S2_P4E.1_K4.1_C4.1_H4.1_A4.1_[T5C]_[A6C]_F4.1_[A9G]_T4.1 (ssRNA)
RNA: UUUGAUUAAUAUGAUAUCGUUCUUUCUUGUACCUUGUUCUUUCUCGAUAUCAUAUUAAUCUUU
B18: Ic_S2_P4E.1_K4.1_C4.1_H4.1_A4.1_[T5C]_[A6T]_[T7A]_F4.1_[T8A]_[A9C]_T4.1 (ssRNA)
RNA: UUUGAUUAAUAUGAUAUCGUUCUUUCUUGUACUAACUUCUUUCUCGAUAUCAUAUUAAUCUUU
B19: Ic_S2_P4E.1_K4.1_C4.1_H4.1_A4.1_[T5C]_[A6T]_[T7C]_F4.1_[T8C]_T4.1 (ssRNA)
RNA: UUUGAUUAAUAUGAUAUCGUUCUUUCUUGUACUCCAUUCUUUCUCGAUAUCAUAUUAAUCUUU
B20: Ic_S2_P4E.1_K4.1_C4.1_H4.1_A4.1_[T5C]_[A6C]_F4.1_[A9C]_T4.1 (ssRNA)
RNA: UUUGAUUAAUAUGAUAUCGUUCUUUCUUGUACCUUCUUCUUUCUCGAUAUCAUAUUAAUCUUU

The binders below were run against T1, PUF4 RNA-binding domain (assay: Mg; RNA-MaP; 20 mM Na-HEPES pH 7.4, 30 mM KOAc, 0.75 mM MgCl2, 0.1% Tween-20, 5% glycerol, 0.1 mg/mL BSA, 2 mM DTT; 25 C; 0.0125-409.6 nM protein). Settings: tags: N-His6-TEV cleaved; C-SNAP kept, Cy3B-labelled; label: tethered on chip by stalled RNA polymerase.
In the case of B1, the Kd is reported as 242 nM.
Binder B2 has a Kd of 9.29 nM.
With B3 the Kd was 22.9 nM.
With B4 the Kd was 538 nM.
B5 gave a Kd of 13.6 nM.
B6 gave a Kd of 13.8 nM.
B7 was tested, and the Kd was 28.6 nM.
In the case of B8, the Kd is reported as 24.4 nM.
With B9 the Kd was 9.39 nM.
Work on B10 yielded a Kd of 85.2 nM.
In the case of B11, the Kd is reported as 72.9 nM.
For B12, the Kd was 753 nM.
B13 showed a Kd of 467 nM.
Work on B14 yielded a Kd of 2.92 nM.
For B15, the Kd was 430 nM.
B16 showed a Kd of 0.967 nM.
B17 gave a Kd of 14 nM.
For B18, the Kd was 519 nM.
With B19 the Kd was 213 nM.
B20 was tested, and the Kd was 21.5 nM.
Work on UCUCUUUGUAGUUAUCUCUU (ssRNA) [Ib_S1_P3E.1_K3.1_C3.1_H3.1_A3.1_[T5G]_[A6T]_F3.1_T3.1] yielded a Kd of 1020 nM.
In the case of UCUCUUUGUUUCUAUCUCUU (ssRNA) [Ib_S1_P3E.1_K3.1_C3.1_H3.1_[A4T]_A3.1_[A6C]_F3.1_T3.1], the Kd is reported as greater than 2300 nM.
For UCUCUUUGUAGCUAUCUCUU (ssRNA) [Ib_S1_P3E.1_K3.1_C3.1_H3.1_A3.1_[T5G]_[A6C]_F3.1_T3.1], the Kd was 819 nM.
